Experimental findings from PMC7145526, “The mRNA repressor TRIM71 cooperates with Nonsense-Mediated Decay factors to destabilize the mRNA of CDKN1A/p21” are described below.

The data set concerns the target T1, Flag-TRIM71-NHL (Homo sapiens, UniProt Q2Q1W2 585-868).
T1 sequence: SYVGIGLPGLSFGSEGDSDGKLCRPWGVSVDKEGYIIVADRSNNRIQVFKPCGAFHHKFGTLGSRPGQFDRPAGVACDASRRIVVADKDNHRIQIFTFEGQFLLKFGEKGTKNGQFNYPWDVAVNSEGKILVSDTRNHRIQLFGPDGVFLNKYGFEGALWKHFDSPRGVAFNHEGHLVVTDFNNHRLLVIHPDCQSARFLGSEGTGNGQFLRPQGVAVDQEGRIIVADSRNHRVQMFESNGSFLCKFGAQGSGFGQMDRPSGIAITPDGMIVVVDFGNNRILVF
As to the kind of experiment: fluorescence polarization; 1x TBST, 30 min, RT; 100 nM 5'-Cy3 RNA, increasing protein concentrations; pH and salt not given. The conditions noted are these: protein: recombinant; tags: Flag; label: 5'-Cy3; hairpin (disruptive mutation). (Polarisation of emitted light reports the rotation of a fluorescent probe.)

For the molecule GUCUUGUCAAGGC (structured_RNA) [TRE M#3 (SL M#3), loop position III G to C], the binding result was “no binding”.
